This note sets out measurements from patent publication US20210139581A1 (Alector, published 2021).

Where a chain is given by its changes, count along the chain named. Numbers in names are those of the source.

One may read the Kd as the equilibrium constant for the complex coming apart. Lower therefore signals a tighter complex. As a reminder, the koff is the first-order rate constant of dissociation. A lower koff goes with slow dissociation. Usually kon stands for the second-order rate constant of association. A higher kon goes with faster complex formation.

Sequences and labels used below:
B1: AB-H2 (antibody, V domains shown)
VH: QVQLVQSGAEVKKPGASVKVSCKASGYTFTDYNLHWVRQAPGQGLEWIGFIYPSNGITGYAQKFQGRVTMTVDTSTSTVYMELSSLRSEDTAVYYCARSTVDYFDYWGQGTLVTVSS
VL: DIQMTQSPSSLSASVGDRVTITCRASQSVSTSTYSYMHWYQQKPGKAPKLLIYYASNLESGVPSRFSGSGSGTDFTLTISSLQPEDFATYYCQHSWEIPLTFGQGTKLEIK
notes: Humanized variant of murine 2F5.1
B2: AB-H15 (antibody, V domains shown)
VH: B1 VH with V20I, V68A, M70L, V79A, V113L
VL: B1 VL with Y53K
notes: as for B1
B3: AB-H9 (antibody, V domains shown)
VH: B1 VH with V11L, G44R, A61S, R67K, V68A, M70L, T76A, V79A, L112T
VL: B1 VL
notes: as for B1
B4: AB-H66 (antibody, V domains shown)
VH: B1 VH with V20I, V68A, M70L, V79A, L112T
VL: DIVLTQSPDSLAVSLGERATINCRASQSVSTSTYSYMHWYQQKPGQPPKLLIKYASNLESGVPDRFSGSGSGTDFTLTISSLQAEDVAVYYCQHSWEIPLTFGQGTKLEIK
notes: as for B1
B5: AB-H65 (antibody, V domains shown)
VH: B1 VH with I48M, V72R, L112T
VL: B4 VL
notes: as for B1
B6: AB-64.5 (antibody, V domains shown)
VH: B1 VH with V20I, L34Y, Q65F, V68A, M70L, T74N, V79A, T100D, V113L
VL: B4 VL with S30G
B7: AB-64.4 (antibody, V domains shown)
VH: B1 VH with V20I, V68A, M70L, T74N, V79A, T100D, V113L
VL: B4 VL with S28D, N57Y, Q93E
B8: AB-64.6 (antibody, V domains shown)
VH: B1 VH with V20I, L34Y, V68A, M70L, T74N, V79A, T100D, V113L
VL: B4 VL with S28D, N57F
B9: AB-64.7 (antibody, V domains shown)
VH: B1 VH with V20I, L34Y, V68A, M70L, T74N, V79A, T100D, V113L
VL: B4 VL with S30G, E59N, W96E
B10: AB-64.8 (antibody, V domains shown)
VH: B1 VH with V20I, L34Y, G66H, V68A, M70L, T74N, V79A, T100D, V113L
VL: B4 VL with S28D
B11: AB-64.3 (antibody, V domains shown)
VH: B1 VH with V20I, Q62E, Q65E, V68A, M70L, T74N, V79A, T100F, V113L
VL: B4 VL with S28D, N57Y, Q93E
B12: AB-64.2 (antibody, V domains shown)
VH: B1 VH with V20I, V68A, M70L, T74N, V79A, V113L
VL: B4 VL with A25V, S28D
B13: AB-64.1 huIgG2 (antibody)
heavy: QVQLVQSGAEVKKPGASVKISCKASGYTFTDYNLHWVRQAPGQGLEWIGFIYPSNGITGYAQKFQGRATLTVDNSTSTAYMELSSLRSEDTAVYYCARSDVDYFDYWGQGTLLTVSSASTKGPSVFPLAPCSRSTSESTAALGCLVKDYFPEPVTVSWNSGALTSGVHTFPAVLQSSGLYSLSSVVTVPSSNFGTQTYTCNVDHKPSNTKVDKTVERKCCVECPPCPAPPVAGPSVFLFPPKPKDTLMISRTPEVTCVVVDVSHEDPEVQFNWYVDGVEVHNAKTKPREEQFNSTFRVVSVLTVVHQDWLNGKEYKCKVSNKGLPAPIEKTISKTKGQPREPQVYTLPPSREEMTKNQVSLTCLVKGFYPSDIAVEWESNGQPENNYKTTPPMLDSDGSFFLYSKLTVDKSRWQQGNVFSCSVMHEALHNHYTQKSLSLSPGK
light: DIVLTQSPDSLAVSLGERATINCRASQSVSTSTYSYMHWYQQKPGQPPKLLIKYASNLESGVPDRFSGSGSGTDFTLTISSLQAEDVAVYYCQHSWEIPLTFGQGTKLEIKRTVAAPSVFIFPPSDEQLKSGTASVVCLLNNFYPREAKVQWKVDNALQSGNSQESVTEQDSKDSTYSLSSTLTLSKADYEKHKVYACEVTHQGLSSPVTKSFNRGEC
B14: AB-64.1 huIgG1 LALAPS (antibody)
heavy: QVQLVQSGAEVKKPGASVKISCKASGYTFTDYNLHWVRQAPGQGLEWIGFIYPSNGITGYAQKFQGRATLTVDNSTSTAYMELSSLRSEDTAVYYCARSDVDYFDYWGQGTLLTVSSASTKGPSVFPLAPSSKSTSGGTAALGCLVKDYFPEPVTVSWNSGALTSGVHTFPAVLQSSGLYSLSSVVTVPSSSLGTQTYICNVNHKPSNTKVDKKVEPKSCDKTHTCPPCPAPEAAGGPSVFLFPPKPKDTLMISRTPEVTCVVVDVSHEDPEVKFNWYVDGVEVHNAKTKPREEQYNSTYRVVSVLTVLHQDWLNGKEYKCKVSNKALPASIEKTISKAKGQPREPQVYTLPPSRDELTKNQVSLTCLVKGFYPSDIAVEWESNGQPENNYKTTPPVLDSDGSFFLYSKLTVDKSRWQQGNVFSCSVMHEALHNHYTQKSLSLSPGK
light: B13 light
B15: AB-64.1 huIgG1 N297A (antibody, V domains shown)
VH: B1 VH with V20I, V68A, M70L, T74N, V79A, T100D, V113L
VL: B4 VL

T2 sequence (P20138 18-259 limits assumed): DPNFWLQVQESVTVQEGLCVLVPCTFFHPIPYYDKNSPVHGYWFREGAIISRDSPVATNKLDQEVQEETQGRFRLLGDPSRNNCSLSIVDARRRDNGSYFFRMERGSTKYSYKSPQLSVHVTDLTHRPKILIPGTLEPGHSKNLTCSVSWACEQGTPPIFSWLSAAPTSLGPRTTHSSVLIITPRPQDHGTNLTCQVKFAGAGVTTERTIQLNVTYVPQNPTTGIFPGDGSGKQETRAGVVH
T1 sequence (P20138 18-364): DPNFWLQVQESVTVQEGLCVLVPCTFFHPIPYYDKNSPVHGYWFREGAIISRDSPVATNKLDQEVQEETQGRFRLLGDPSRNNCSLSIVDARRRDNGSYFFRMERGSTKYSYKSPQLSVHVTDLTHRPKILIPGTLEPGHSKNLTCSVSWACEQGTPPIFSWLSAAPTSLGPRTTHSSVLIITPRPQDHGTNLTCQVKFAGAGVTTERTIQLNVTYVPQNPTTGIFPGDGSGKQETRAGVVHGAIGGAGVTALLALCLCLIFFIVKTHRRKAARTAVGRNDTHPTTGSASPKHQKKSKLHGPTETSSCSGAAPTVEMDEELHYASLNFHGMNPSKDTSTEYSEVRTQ

One experiment addresses T1, human CD33 on primary human monocyte-derived dendritic cells (human, UniProt P20138 18-364). The experiment is described as follows: cell-based or functional assay.
B1: the “Receptor downregulation (EC50)” value was 0.0517 nM.
Take B2: the “Receptor downregulation (EC50)” value stood at 0.0586 nM.
Regarding B3, the “Receptor downregulation (EC50)” value amounted to 0.0234 nM.
In the case of B4, the “Receptor downregulation (EC50)” value is 0.0393 nM.
For the molecule B5, the “Receptor downregulation (EC50)” value is 0.0481 nM.

A further experiment deals with T1, human CD33 on primary human …. In words: cell-based or functional assay. The source holds these as a separate data set.
Take B6: the “Receptor downregulation (EC50)” value is 0.0263 nM.
The same measure, in the same setting: for B7 the value was 0.0236 nM.
As for B8, the “Receptor downregulation (EC50)” value was 0.034 nM.
As for B9, the “Receptor downregulation (EC50)” value was found to be 0.0306 nM.
For B10, the “Receptor downregulation (EC50)” value was found to be 0.0272 nM.
On the same count and under the same terms, for B11 the value was 0.0257 nM; for B12, 0.0311 nM.

A further experiment shares this target. The experiment is described as follows: cell-based or functional assay. This is another data set of the same source.
With B8, the “Maximal Downregulation (% CD33 remaining)” value worked out at 30.6% and the “Receptor downregulation (EC50)” value worked out at 0.0113 nM.
For B9, the “Maximal Downregulation (% CD33 remaining)” value is 31.2% and the “Receptor downregulation (EC50)” value came out at 0.017 nM.
In the case of B12, the “Maximal Downregulation (% CD33 remaining)” value came to 26.8% and the “Receptor downregulation (EC50)” value was determined as 0.0166 nM.

The next experiment has the same target. The experiment is described as follows: cell-based or functional assay. This is another data set of the same source.
As for B13, the “Maximal Downregulation (% CD33 remaining)” value was determined as 15.1% and the “Receptor downregulation (pM, EC50)” value was 35.6 pM.
Turning to B14, the “Maximal Downregulation (% CD33 remaining)” value was determined as 39.4% and the “Receptor downregulation (pM, EC50)” value came to 57.1 pM.
For B15, the “Maximal Downregulation (% CD33 remaining)” value was 41.3% and the “Receptor downregulation (pM, EC50)” value came out at 29.3 pM.

A further experiment has as its target T2, human CD33 (human, UniProt P20138 18-259, limits assumed).
T2 construct: Human CD33 immobilized on the BLI sensor tip or the BIAcore C1 chip; also called Siglec-3
The experiment is described as follows: SPR (BIAcore), Fab over CD33 on C1 chip. The protocol: The affinity parameters for 10 of the 88 humanized antibodies (AB-H1, AB-H3, AB-H6, AB-H11, AB-H22, AB-H24, AB-H26, AB-H63, AB-H64, and AB-H71) were measured in a separate experiment by a more sensitive technique, surface plasmon resonance (BIAcore), and compared to Chimeric Ab and Chimeric Ab #2. BIAcore measurements were performed as follows: human CD33 was immobilized on the surface of a C1 chip, and Fabs were injected for 300 s to monitor association, followed by a 900 s flow in running buffer to monitor dissociation. The Fabs were measured at 5 concentrations: a high concentration of 27 nM and 3-fold serial dilutions.
In a separate experiment, as determined by the more sensitive BIAcore technique, affinity parameters of affinity matured antibodies derived from the humanized antibody AB-H64 were measured and were directly compared to that of the Chimeric Ab, according to the method described in Example 1 above.
In general terms: Surface plasmon resonance follows binding to a sensor surface in real time, without labels.
B6: the “Fold Change to AB-H64” value is 214 fold, the “Fold Change to Chimeric Ab” value turned out to be 162 fold, the Kd stood at 0.0101 nM and the off-rate (koff) turned out to be 6.33e-05 s⁻¹. The on-rate (kon) stood at 6.3e+06 M⁻¹ s⁻¹.
Take B7: the “Fold Change to AB-H64” value amounted to 586 fold; the “Fold Change to Chimeric Ab” value was determined as 443 fold; the affinity, expressed as Kd, was 0.00367 nM; the koff is 1.98e-05 s⁻¹. The on-rate constant (kon) was determined as 5.4e+06 M⁻¹ s⁻¹.
For B8 the same measures were 341 fold, 258 fold, 0.0063 nM, 3.95e-05 s⁻¹ and 6.26e+06 M⁻¹ s⁻¹.
For the molecule B9, the “Fold Change to AB-H64” value came to 216 fold, the “Fold Change to Chimeric Ab” value was 163 fold, binding was put at a Kd of 0.00997 nM and the koff turned out to be 8.75e-05 s⁻¹. The on-rate constant (kon) was 8.78e+06 M⁻¹ s⁻¹.
For B10 the same measures were 321 fold, 242 fold, 0.00671 nM, 4.8e-05 s⁻¹ and 7.15e+06 M⁻¹ s⁻¹.
Taken in the same sequence, the figures for B11 were 401 fold, 303 fold, 0.00537 nM, 2.67e-05 s⁻¹ and 4.98e+06 M⁻¹ s⁻¹.
As to B12, the “Fold Change to AB-H64” value was found to be 46.9 fold, the “Fold Change to Chimeric Ab” value worked out at 35.5 fold, the equilibrium dissociation constant (Kd) stood at 0.0458 nM and the off-rate constant (koff) was 0.000137 s⁻¹. Also, the kon was 3e+06 M⁻¹ s⁻¹.

In a further experiment the target is T2, human CD33. The experiment is described as follows: BLI (ForteBio), Fab 100 nM on immobilized CD33. Here is the method:
(§1) The affinities (KD) of the humanized antibodies for human CD33 were measured for each antibody by BioLayer Interferometry in a ForteBio assay according to standard techniques (Estep et al. (2013) MAbs 5(2): 270-8). […] The assay was carried out at room temperature.
With B1, binding was characterised by a dissociation constant (Kd) of 3.24 nM.
B2: the Kd turned out to be 5.45 nM.
Take B3: the affinity, expressed as Kd, was 3.5 nM.
B4 displayed a Kd of 5.54 nM.
In the case of B5, the Kd came out at 8.57 nM.

For the next experiment, the target named is T2, human CD33. In words: BLI (ForteBio), Fab 100 nM on immobilized CD33. The source holds these as a separate data set. Here is the method:
as §1
The affinities of AB-H64 and its variants (Table 5) for human CD33 were measured by Fortebio assay according to the method described in Example 1 above.
A general note: In BLI a coated tip is dipped into the sample, and binding shifts an interference pattern.
As for B6, the “Fold affinity improvement over parental Ab (AB-H64)” value (“Fold affinity improvement” for short) was 7.76 fold and binding was put at a Kd of 0.369 nM.
For the molecule B7, the “Fold affinity improvement” value came out at 7.95 fold and the Kd was 0.36 nM.
Regarding B8, the “Fold affinity improvement” value came out at 8.52 fold and binding was put at a Kd of 0.336 nM.
As for B9, the “Fold affinity improvement” value turned out to be 11.9 fold and binding was characterised by a dissociation constant (Kd) of 0.24 nM.
For the molecule B10, the “Fold affinity improvement” value is 10.3 fold and binding was characterised by a dissociation constant (Kd) of 0.277 nM.
For B11 the same measures were 6.53 fold and 0.438 nM.
B12: the “Fold affinity improvement” value is 3.64 fold and binding was put at a Kd of 0.786 nM.
